Assay results taken from paper PMC7729563, “Phospho-Mutant Activity Assays Provide Evidence for the Negative Regulation of Transcriptional Regulator PRE1 by Phosphorylation” (International Journal of Molecular Sciences, 2020).
Changes are numbered by the printed parent chain. Each block holds one binder with its values, some of them ahead of it.

Legend:
[1] = molecular target: T1, GST-BIN2 (BR-… 2, GSK3-like kinase) (Arabidopsis thaliana, UniProt Q39011 1-380); assay: far-Western, overlay or dot blot; overlay assay in vitro (Figure S5A); format not told; details: both partners purified
T1 construct: GST-BIN2 is the only recombinant wild-type BIN2 described (methods 4.11); also called brassinosteroid-insensitive 2; source: E. coli, purified
T1 sequence (looked up): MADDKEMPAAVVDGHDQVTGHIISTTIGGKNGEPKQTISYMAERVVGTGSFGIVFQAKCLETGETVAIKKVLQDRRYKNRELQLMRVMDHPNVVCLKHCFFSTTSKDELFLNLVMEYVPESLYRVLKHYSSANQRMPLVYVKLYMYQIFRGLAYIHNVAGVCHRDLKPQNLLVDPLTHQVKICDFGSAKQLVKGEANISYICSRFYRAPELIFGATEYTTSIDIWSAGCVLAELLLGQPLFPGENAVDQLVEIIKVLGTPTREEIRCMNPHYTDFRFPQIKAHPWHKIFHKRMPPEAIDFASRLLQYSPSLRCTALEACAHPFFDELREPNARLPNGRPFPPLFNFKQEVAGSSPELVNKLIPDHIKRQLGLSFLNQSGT

GST-IBH1 = molecular target: T2, GST-IBH1 (Arabidopsis thaliana, UniProt Q9SKX1 1-156); assay: pull-down; 1 μg GST-IBH1 on glutathione beads with 1 μg MBP fusion; 20 mM Tris-HCl pH 7.5, 100 mM NaCl, 1 mM EDTA; washes with 300 mM NaCl, 0.5% Triton X-100; anti-MBP immunoblot; details: both partners purified
T2 construct: also called glutathione S-transferase (GST)-IBH1; source: bacteria, purified on glutathione beads; not shown: GST, N-terminal, kept
T2 sequence (looked up): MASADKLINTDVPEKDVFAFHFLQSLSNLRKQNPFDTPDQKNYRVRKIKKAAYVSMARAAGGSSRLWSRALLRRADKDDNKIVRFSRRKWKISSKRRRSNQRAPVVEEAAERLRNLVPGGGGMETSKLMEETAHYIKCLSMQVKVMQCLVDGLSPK

binding result [1]: binds
binding result (GST-IBH1): binds
B1: MBP-PRE1 (natural protein, Arabidopsis thaliana, UniProt Q9FLE9 1-92, looked up)
chain: MSNRRSRQSSSAPRISDNQMIDLVSKLRQILPEIGQRRRSDKASASKVLQETCNYIRNLNREVDNLSERLSQLLESVDEDSPEAAVIRSLLM
notes: MBP-PRE1 is the only recombinant PRE1 described; source: E. coli, purified on amylose resin beads; not shown: MBP, N-terminal, kept

binding result (GST-IBH1): binds
B2: MBP-PRE1^S67A (natural protein, Arabidopsis thaliana, UniProt Q9FLE9 1-92, looked up)
chain: B1 chain with S67A
notes: source: E. coli, purified on amylose resin beads; not shown: MBP, N-terminal, kept
